Reference: patent US20160208018A1 (JUNO THERAPEUTICS, published 2016)
Like-named read-outs stand apart in the source and are kept apart here.

Legend:
[1] = biological target: T1, Human ROR1 (receptor tyrosine kinase-like orphan receptor 1) (human, UniProt Q01973 30-937); assay: flow cytometry on ROR1-expressing cells; predicted plateau relative to R12 scFv = 100%
T1 construct: also called hROR1; K562/ROR1
Protocol: (§1) Additionally, percent (%) maximum (max) binding to ROR1-expressing cells and % max competition with the reference antibody (R12 scFv) were calculated. Percent max binding and competition values were calculated based on predicted plateaus (measured by Prism® using four parameter non-linear regression), relative to values for R12 scFv binding and inhibition, respectively, assigned as 100% in each study.
(§2) Assays also were performed to assess competition (measured as half maximal inhibitory concentration (IC₅₀)) of the clones with the R12 scFv reference antibody for binding to ROR1-expressing cells, as described in Example 1. Percent (%) max ROR1 and % max competition, as compared to the R12 scFv reference antibody, were determined as described in Example 1.

[2] = biological target: T1, Human ROR1 (receptor tyrosine …); assay: flow cytometry on ROR1-expressing K562 and CHOK1 cells, mean (n = 2)
[3] = biological target: T1, Human ROR1 (receptor tyrosine …); assay: flow cytometry competition, competitor R12 scFv on ROR1-expressing cells, mean (n = 3)
Protocol: (§3) Assays also were performed to assess competition of the clones with the reference antibody (R12 scFv), for binding to ROR1-expressing cells. VH clones were titrated against 2 nM Myc-R12 on ROR1/K562 cells and competition assessed with an anti-Myc-Alexa647 secondary antibody, and the half maximal inhibitory concentration (IC₅₀) determined for respective clones.
as §2

[4] = biological target: T1, Human ROR1 (receptor tyrosine …); assay: competition with R12 scFv on ROR1-expressing cells; predicted plateau relative to R12 scFv = 100%
Protocol: as §1, §2

[5] = biological target: T1, Human ROR1 (receptor tyrosine …); assay: flow cytometry on ROR1-expressing K562 and CHOK1 cells, mean (n = 7)
[6] = biological target: T1, Human ROR1 (receptor tyrosine …); assay: flow cytometry competition, competitor 2 nM Myc-R12 scFv on ROR1/K562 cells, mean (n = 8)
Protocol: as §3

[7] = biological target: T1, Human ROR1 (receptor tyrosine …); assay: flow cytometry on ROR1-expressing cells; predicted plateau relative to R12 scFv = 100%; remark: listed apart in the source
Protocol: as §1

[8] = biological target: T1, Human ROR1 (receptor tyrosine …); assay: competition with Myc-R12 scFv on ROR1/K562 cells; predicted plateau relative to R12 scFv = 100%
Protocol: as §3, §1

[9] = biological target: T1, Human ROR1 (receptor tyrosine …); assay: flow cytometry self-competition, competitor R12 scFv on ROR1-expressing cells, mean (n = 17)
Protocol: as §3, §2

[10] = biological target: T1, Human ROR1 (receptor tyrosine …); assay: flow cytometry on ROR1-expressing K562 and CHOK1 cells, mean (n = 20)
[11] = biological target: T1, Human ROR1 (receptor tyrosine …); assay: as above; remark: listed apart in the source
[12] = biological target: T1, Human ROR1 (receptor tyrosine …); assay: flow cytometry self-competition, competitor 2 nM Myc-R12 scFv on ROR1/K562 cells, mean (n = 17)
Protocol: as §3

[13] = biological target: T2, Mouse ROR1 (mouse, UniProt Q9Z139 30-937); assay: inferred from IFN-gamma release of CAR-expressing CD8+ T cells co-cultured with K562/mouse ROR1 cells
T2 construct: also called mROR1; K562/mouse ROR1
T2 sequence (Q9Z139 30-937): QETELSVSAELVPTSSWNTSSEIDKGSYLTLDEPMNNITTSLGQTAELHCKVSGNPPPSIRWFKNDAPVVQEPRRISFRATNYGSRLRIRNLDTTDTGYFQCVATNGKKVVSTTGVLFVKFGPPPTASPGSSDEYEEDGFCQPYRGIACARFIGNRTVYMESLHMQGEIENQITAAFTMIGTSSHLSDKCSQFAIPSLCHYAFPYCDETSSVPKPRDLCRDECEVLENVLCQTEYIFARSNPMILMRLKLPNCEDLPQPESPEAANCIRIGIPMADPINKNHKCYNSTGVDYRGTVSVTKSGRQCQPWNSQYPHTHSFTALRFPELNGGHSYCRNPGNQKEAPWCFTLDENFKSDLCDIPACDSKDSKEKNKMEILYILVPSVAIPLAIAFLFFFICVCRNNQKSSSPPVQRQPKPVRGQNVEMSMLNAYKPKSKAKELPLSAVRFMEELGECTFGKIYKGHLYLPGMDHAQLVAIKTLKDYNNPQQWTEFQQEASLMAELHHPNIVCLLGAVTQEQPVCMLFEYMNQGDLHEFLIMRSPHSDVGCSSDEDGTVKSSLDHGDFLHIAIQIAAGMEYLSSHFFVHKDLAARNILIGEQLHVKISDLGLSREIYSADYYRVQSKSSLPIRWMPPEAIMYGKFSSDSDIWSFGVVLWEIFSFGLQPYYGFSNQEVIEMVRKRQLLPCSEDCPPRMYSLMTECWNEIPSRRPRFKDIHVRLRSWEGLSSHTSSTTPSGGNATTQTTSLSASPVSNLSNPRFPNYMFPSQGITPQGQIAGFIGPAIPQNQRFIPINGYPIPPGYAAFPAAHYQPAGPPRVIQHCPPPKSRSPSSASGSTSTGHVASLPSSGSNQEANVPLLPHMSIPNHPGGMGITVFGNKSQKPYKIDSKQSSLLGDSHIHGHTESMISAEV
Protocol: Cytokine release was assessed following incubation of the CAR-expressing cells with either K562/human ROR1 (hROR1) or K562/mouse ROR1 (mROR1) antigen-expressing cells. Transduced CD8+ T cells were co-cultured with antigen-expressing cells at a single effector to target (E:T). The co-cultured cells were incubated for about 24 hours, and then supernatants were collected for measurement of IFN-γ using a cytokine immunoassay.

[14] = biological target: T1, Human ROR1 (receptor tyrosine …); assay: flow cytometry on ROR1-expressing K562 and CHOK1 cells (n = 1)
[15] = biological target: T1, Human ROR1 (receptor tyrosine …); assay: flow cytometry competition, competitor 2 nM Myc-R12 scFv on ROR1/K562 cells, mean (n not given)
Protocol: as §3

T1 sequence (Q01973 30-937): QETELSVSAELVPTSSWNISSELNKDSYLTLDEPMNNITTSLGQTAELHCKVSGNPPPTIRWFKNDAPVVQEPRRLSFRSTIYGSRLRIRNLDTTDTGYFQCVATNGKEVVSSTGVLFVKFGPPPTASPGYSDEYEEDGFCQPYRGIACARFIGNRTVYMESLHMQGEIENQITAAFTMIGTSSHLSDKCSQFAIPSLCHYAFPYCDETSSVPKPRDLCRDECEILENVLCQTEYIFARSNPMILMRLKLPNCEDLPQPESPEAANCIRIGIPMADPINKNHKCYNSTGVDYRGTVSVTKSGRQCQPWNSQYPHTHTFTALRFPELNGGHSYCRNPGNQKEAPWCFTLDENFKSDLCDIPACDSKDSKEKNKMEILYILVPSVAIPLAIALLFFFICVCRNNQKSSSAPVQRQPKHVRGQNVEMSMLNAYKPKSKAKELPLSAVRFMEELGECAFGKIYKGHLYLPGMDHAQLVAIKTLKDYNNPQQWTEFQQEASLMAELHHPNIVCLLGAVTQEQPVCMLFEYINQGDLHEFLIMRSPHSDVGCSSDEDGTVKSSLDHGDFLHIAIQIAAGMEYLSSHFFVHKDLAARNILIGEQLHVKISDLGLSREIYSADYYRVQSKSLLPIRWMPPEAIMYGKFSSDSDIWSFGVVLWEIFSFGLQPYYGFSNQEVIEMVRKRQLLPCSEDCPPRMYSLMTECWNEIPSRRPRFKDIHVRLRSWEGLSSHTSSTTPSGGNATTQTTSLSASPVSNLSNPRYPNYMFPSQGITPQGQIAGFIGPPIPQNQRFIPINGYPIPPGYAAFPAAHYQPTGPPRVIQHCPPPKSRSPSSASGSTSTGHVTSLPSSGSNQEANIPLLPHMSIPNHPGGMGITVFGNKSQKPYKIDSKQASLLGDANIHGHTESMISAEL

B1: Clone 83 scFv (scFv)
scFv: QVQLVQSGAEVKKPGASVKVSCKASGYTFTSYYMHWVRQAPGQGLEWMGIINPSGGSTSYAQKFQGRVTMTRDTSTSTVYMELSSLRSEDTAVYYCARDSSYDAFDIWGQGTMVTVSSGGGGSGGGGSGGGGSAIQLTQSPSTLSASVGDRVTITCQASQDISNYLNWYQQKPGKAPKLLINDASYLETGVPSRFSGSGSGTDFTLTISSLQPEDIATYYCQQYESLPYTFGQGTKLEIK
B1 was tested, and the “% Max Binding” value [1] was 70%, the EC50 [2] was 2.5 nM and the IC50 [3] was 11.1 nM. For the same binder, the “% Max Competition” value [4] was 103%.

B2: Clone V70 (VHH)
VHH: QVQLLESGGGLVQPGRSLRLSCTASGFTFGDYAMSWVRQAPGKGLEWVSSISGSGRSTDHADYVKGRFTISRDNSKNTVYLQMNRLRAEDTAVYYCAKVSNYEYYFDYWAQGTLVTVSS
notes: human VH-only single-domain antibody, no VL
With B2 the EC50 [5] was 3.1 nM, the IC50 [6] was 38.2 nM and the “% Max Binding” value [7] was 92%. The “% Max Competition” value [8] was 92%.

B3: R12 scFv reference antibody (scFv)
scFv: QEQLVESGGRLVTPGGSLTLSCKASGFDFSAYYMSWVRQAPGKGLEWIATIYPSSGKTYYATWVNGRFTISSDNAQNTVDLQMNSLTAADRATYFCARDSYADDGALFNIWGPGTLVTISSGGGGSGGGGSGGGGSELVLTQSPSVSAALGSPAKITCTLSSAHKTDTIDWYQQLQGEAPRYLMQVQSDGSYTKRPGVPDRFSGSSSGADRYLIIPSVQADDEADYYCGADYIGGYVFGGGTQLTVTG
notes: also called Myc-R12; rabbit anti-ROR1 antibody
An IC50 [9] of 3.3 nM, an EC50 [10] of 0.8 nM and an EC50 [11] of 0.8 nM were found for B3 in this work. The IC50 [12] was 3.3 nM.

B4: CAR containing the rabbit anti-ROR1 (R12) scFv (VH-VL) (other)
chain: QEQLVESGGRLVTPGGSLTLSCKASGFDFSAYYMSWVRQAPGKGLEWIATIYPSSGKTYYATWVNGRFTISSDNAQNTVDLQMNSLTAADRATYFCARDSYADDGALFNIWGPGTLVTISSGGGGSGGGGSGGGGSELVLTQSPSVSAALGSPAKITCTLSSAHKTDTIDWYQQLQGEAPRYLMQVQSDGSYTKRPGVPDRFSGSSSGADRYLIIPSVQADDEADYYCGADYIGGYVFGGGTQLTVTG
notes: Control chimeric antigen receptor expressed on primary human CD8+ T cells; tEGFR marker is split off by T2A; also called R12 scFv CAR; not shown: Ig-derived hinge only spacer, human CD28-derived transmembrane domain, human 4-1BB-derived intracellular signaling domai
B4: no binding [13].

B5: Clone V224 (VHH)
VHH: QVQLVESGGGLVKPGGSLRLSCAASGFTFINAWMSWVRQAPGKGLEWVGRIKSKTDGGTTDYAAPVKGRFTISRDDSKNTLYLQMNSLKTEDTAVYYCARTYSSSWYESLLFDYWGQGTLVTVSS
notes: as for B2
With B5 the “% Max Binding” value [7] was 74%, the EC50 [14] was 46.2 nM and the IC50 [15] was 94.6 nM. For the same binder, the “% Max Competition” value [8] was 32%.
